For the test, the target named is TM expressed on COS-7 cells from pTM-GFP recombinant plasmids (UniProt P07204). Put plainly: atomic force microscopy.
Chain of UniProt P07204 (P07204 19-575): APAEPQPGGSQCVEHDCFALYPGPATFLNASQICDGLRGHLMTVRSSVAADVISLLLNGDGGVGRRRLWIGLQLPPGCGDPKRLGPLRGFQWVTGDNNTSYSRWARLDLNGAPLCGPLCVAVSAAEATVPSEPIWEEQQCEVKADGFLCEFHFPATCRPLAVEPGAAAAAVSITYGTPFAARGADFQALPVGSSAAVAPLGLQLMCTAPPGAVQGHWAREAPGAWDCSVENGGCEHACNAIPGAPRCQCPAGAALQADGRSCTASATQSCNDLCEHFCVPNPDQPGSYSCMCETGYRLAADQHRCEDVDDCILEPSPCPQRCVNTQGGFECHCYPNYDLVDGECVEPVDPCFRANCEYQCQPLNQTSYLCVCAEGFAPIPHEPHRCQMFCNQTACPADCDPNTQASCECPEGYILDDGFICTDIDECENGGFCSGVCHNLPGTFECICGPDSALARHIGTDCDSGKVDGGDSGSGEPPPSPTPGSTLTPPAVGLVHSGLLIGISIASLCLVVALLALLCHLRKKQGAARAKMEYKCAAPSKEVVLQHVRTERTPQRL

Consider “human alpha thrombin (from UniProt P00734 364-622) (enzyme)”, for which the interactional force (single-molecule rupture force), with atorvastatin was determined as 84 pN; the interactional force (single-molecule rupture force), with pitavastatin was determined as 87 pN; the interactional force (single-molecule rupture force), with rosuvastatin was 74.4 pN.

The values are drawn from publication PMC11840598.
